Data taken from US10233474B2, “Materials and methods for producing 6-carbon monomers” (INVISTA North America S.á.r.l., priority 2014, dated 2019).
Values belong to the molecule of their own block, whether it stands above or below them.

Legend:
Assay type in all cases: biochemical
[1] = ω-transaminase activity, forward direction (adipate semialdehyde to 6-aminohexanoate); conditions: cell free extract; 10 mM adipate semialdehyde, 10 mM L-alanine, pH 7.5, 25° C., 4 h; RP-HPLC
Method: (§1) A nucleotide sequence encoding a His-tag was added to the nucleic acid sequences from Chromobacterium violaceum, Pseudomonas aeruginosa, Pseudomonas syringae, Rhodobacter sphaeroides, and Vibrio fluvialis encoding the ω-transaminases of SEQ ID NOs: 7, 8, 9, 10 and 12, respectively (see FIG. 6) such that N-terminal HIS tagged ω-transaminases could be produced. Each of the resulting modified genes was cloned into a pET21a expression vector under control of the T7 promoter and each expression vector was transformed into a BL21[DE3] E. coli host. The resulting recombinant E. coli strains were cultivated at 37° C. in a 250 mL shake flask culture containing 50 mL LB media and antibiotic selection pressure, with shaking at 230 rpm. Each culture was induced overnight at 16° C. using 1 mM IPTG.
(§2) The pellet from each induced shake flask culture was harvested via centrifugation. Each pellet was resuspended and lysed via sonication. The cell debris was separated from the supernatant via centrifugation and the cell free extract was used immediately in enzyme activity assays.
Enzyme activity in the forward direction (i.e., adipate semialdehyde to 6-aminohexanoate) was confirmed for the transaminases of SEQ ID NO 7, SEQ ID NO 8, SEQ ID NO 9, SEQ ID NO 10 and SEQ ID NO 12. Enzyme activity assays were performed in a buffer composed of a final concentration of 50 mM HEPES buffer (pH=7.5), 10 mM adipate semialdehyde, 10 mM L-alanine and 100 μM pyridoxyl 5′ phosphate. Each enzyme activity assay reaction was initiated by adding a cell free extract of the ω-transaminase gene product or the empty vector control to the assay buffer containing the adipate semialdehyde and incubated at 25° C. for 4 h, with shaking at 250 rpm. The formation of pyruvate was quantified via RP-HPLC.

[2] = ω-transaminase activity, reverse direction (6-aminohexanoate to adipate semialdehyde); conditions: cell free extract; 10 mM 6-aminohexanoate, 10 mM pyruvate, pH 7.5, 25° C., 24 h; RP-HPLC
Method: as §1, §2
Enzyme activity assays in the reverse direction (i.e., 6-aminohexanoate to adipate semialdehyde) were performed in a buffer composed of a final concentration of 50 mM HEPES buffer (pH=7.5), 10 mM 6-aminohexanoate, 10 mM pyruvate and […] pyridoxyl 5′ phosphate. Each enzyme activity assay reaction was initiated by adding cell free extract of the ω-transaminase gene product or the empty vector control to the assay buffer containing the 6-aminohexanoate and incubated at 25° C. for 24 h, with shaking at 250 rpm. The formation of L-alanine from pyruvate was quantified via RP-HPLC.

[3] = carboxylate reductase activity (adipate semialdehyde to hexanedial); conditions: purified enzyme with sfp phosphopantetheine transferase; 2 mM adipate semialdehyde, pH 7.5, room temperature, 20 min
Method: The N-terminal His-tagged carboxylate reductase of SEQ ID NO 6 (see Example 2 and FIG. 6) was assayed using adipate semialdehyde as substrate. The enzyme activity assay was performed in triplicate in a buffer composed of a final concentration of 50 mM HEPES buffer (pH=7.5), 2 mM adipate semialdehyde, 10 mM MgCl2, 1 mM ATP and 1 mM NADPH. The enzyme activity assay reaction was initiated by adding purified carboxylate reductase and phosphopantetheine transferase or the empty vector control to the assay buffer containing the adipate semialdehyde and then incubated at room temperature for 20 min. The consumption of NADPH was monitored by absorbance at 340 nm.

ω-transaminase activity: conversion of pyruvate to L-alanine with 6-aminohexanoate as substrate, against the empty vector control [2]: accepted 6-aminohexanote as substrate
Molecule: SEQ ID NO 10: Rhodobacter sphaeroides ω-transaminase, N-terminal His-tagged
ω-transaminase activity: conversion of L-alanine to pyruvate with adipate semialdehyde as substrate, against the empty vector control [1]: accepted adipate semialdehyde as substrate

ω-transaminase activity: conversion of pyruvate to L-alanine with 6-aminohexanoate as substrate, against the empty vector control [2]: accepted 6-aminohexanote as substrate
B1: SEQ ID NO 7: Chromobacterium violaceum ω-transaminase, N-terminal His-tagged (protein, listed as Chromobacterium violaceum)
chain: MQKQRTTSQWRELDAAHHLHPFTDTASLNQAGARVMTRGEGVYLWDSEGNKIIDGMAGLWCVNVGYGRKDFAEAARRQMEELPFYNTFFKTTHPAVVELSSLLAEVTPAGFDRVFYTNSGSESVDTMIRMVRRYWDVQGKPEKKTLIGRWNGYHGSTIGGASLGGMKYMHEQGDLPIPGMAHIEQPWWYKHGKDMTPDEFGVVAARWLEEKILEIGADKVAAFVGEPIQGAGGVIVPPATYWPEIERICRKYDVLLVADEVICGFGRTGEWFGHQHFGFQPDLFTAAKGLSSGYLPIGAVFVGKRVAEGLIAGGDFNHGFTYSGHPVCAAVAHANVAALRDEGIVQRVKDDIGPYMQKRWRETFSRFEHVDDVRGVGMVQAFTLVKNKAKRELFPDFGEIGTLCRDIFFRNNLIMRACGDHIVSAPPLVMTRAEVDEMLAVAERCLEEFEQTLKARGLA
modifications: N-terminal His tag
notes: Chromobacterium violaceum ω-transaminase, N-terminal His-tagged
ω-transaminase activity: conversion of L-alanine to pyruvate with adipate semialdehyde as substrate, against the empty vector control [1]: accepted adipate semialdehyde as substrate

ω-transaminase activity: conversion of pyruvate to L-alanine with 6-aminohexanoate as substrate, against the empty vector control [2]: accepted 6-aminohexanote as substrate
B2: SEQ ID NO 12: Vibrio fluvialis ω-transaminase, N-terminal His-tagged (protein, listed as Vibrio fluvialis)
chain: MNKPQSWEARAETYSLYGFTDMPSLHQRGTVVVTHGEGPYIVDVNGRRYLDANSGLWNMVAGFDHKGLIDAAKAQYERFPGYHAFFGRMSDQTVMLSEKLVEVSPFDSGRVFYTNSGSEANDTMVKMLWFLHAAEGKPQKRKILTRWNAYHGVTAVSASMTGKPYNSVFGLPLPGFVHLTCPHYWRYGEEGETEEQFVARLARELEETIQREGADTIAGFFAEPVMGAGGVIPPAKGYFQAILPILRKYDIPVISDEVICGFGRTGNTWGCVTYDFTPDAIISSKNLTAGFFPMGAVILGPELSKRLETAIEAIEEFPHGFTASGHPVGCAIALKAIDVVMNEGLAENVRRLAPRFEERLKHIAERPNIGEYRGIGFMWALEAVKDKASKTPFDGNLSVSERIANTCTDLGLICRPLGQSVVLCPPFILTEAQMDEMFDKLEKALDKVFAEVA
modifications: N-terminal His tag
notes: Vibrio fluvialis ω-transaminase, N-terminal His-tagged
ω-transaminase activity: conversion of L-alanine to pyruvate with adipate semialdehyde as substrate, against the empty vector control [1]: accepted adipate semialdehyde as substrate

B3: SEQ ID NO: 6: Segniliparus rotundus carboxylate reductase, N-terminal His-tagged (protein, listed as Segniliparus rotundus)
chain: MTQSHTQGPQASAAHSRLARRAAELLATDPQAAATLPDPEVVRQATRPGLRLAERVDAILSGYADRPALGQRSFQTVKDPITGRSSVELLPTFDTITYRELRERATAIASDLAHHPQAPAKPGDFLASIGFISVDYVAIDIAGVFAGLTAVPLQTGATLATLTAITAETAPTLFAASIEHLPTAVDAVLATPSVRRLLVFDYRAGSDEDREAVEAAKRKIADAGSSVLVDVLDEVIARGKSAPKAPLPPATDAGDDSLSLLIYTSGSTGTPKGAMYPERNVAHFWGGVWAAAFDEDAAPPVPAINITFLPLSHVASRLSLMPTLARGGLMHFVAKSDLSTLFEDLKLARPTNLFLVPRVVEMLYQHYQSELDRRGVQDGTREAEAVKDDLRTGLLGGRILTAGFGSAPLSAELAGFIESLLQIHLVDGYGSTEAGPVWRDGYLVKPPVTDYKLIDVPELGYFSTDSPHPRGELAIKTQTILPGYYKRPETTAEVFDEDGFYLTGDVVAQIGPEQFAYVDRRKNVLKLSQGEFVTLAKLEAAYSSSPLVRQLFVYGSSERSYLLAVIVPTPDALKKFGVGEAAKAALGESLQKIARDEGLQSYEVPRDFIIETDPFTVENGLLSDARKSLRPKLKEHYGERLEAMYKELADGQANELRDIRRGVQQRPTLETVRRAAAAMLGASAAEIKPDAHFTDLGGDSLSALTFSNFLHDLFEVDVPVGVIVSAANTLGSVAEHIDAQLAGGRARPTFATVHGKGSTTIKASDLTLDKFIDEQTLEAAKHLPKPADPPRTVLLTGANGWLGRFLALEWLERLAPAGGKLITIVRGKDAAQAKARLDAAYESGDPKLAGHYQDLAATTLEVLAGDFSEPRLGLDEATWNRLADEVDFISHPGALVNHVLPYNQLFGPNVAGVAEIIKLAITTRIKPVTYLSTVAVAAGVEPSALDEDGDIRTVSAERSVDEGYANGYGNSKWGGEVLLREAHDRTGLPVRVFRSDMILAHQKYTGQVNATDQFTRLVQSLLATGLAPKSFYELDAQGNRQRAHYDGIPVDFTAESITTLGGDGLEGYRSYNVFNPHRDGVGLDEFVDWLIEAGHPITRIDDYDQWLSRFETSLRGLPESKRQASVLPLLHAFARPGPAVDGSPFRNTVFRTDVQKAKIGAEHDIPHLGKALVLKYADDIKQLGLL
modifications: N-terminal His tag
notes: Segniliparus rotundus carboxylate reductase, N-terminal His-tagged
carboxylate reductase activity: consumption of NADPH (absorbance at 340 nm) with adipate semialdehyde as substrate, against the empty vector control [3]: accepted adipate semialdehyde as substrate

ω-transaminase activity: conversion of pyruvate to L-alanine with 6-aminohexanoate as substrate, against the empty vector control [2]: accepted 6-aminohexanote as substrate
B4: SEQ ID NO 9: Pseudomonas syringae ω-transaminase, N-terminal His-tagged (protein, listed as Pseudomonas syringae)
chain: MSANNPQTLEWQALSSEHHLAPFSDYKQLKEKGPRIITRAEGVYLWDSEGNKILDGMSGLWCVAIGYGREELADAASKQMRELPYYNLFFQTAHPPVLELAKAISDIAPEGMNHVFFTGSGSEGNDTMLRMVRHYWALKGQPNKKTIISRVNGYHGSTVAGASLGGMTYMHEQGDLPIPGVVHIPQPYWFGEGGDMTPDEFGIWAAEQLEKKILELGVENVGAFIAEPIQGAGGVIVPPDSYWPKIKEILSRYDILFAADEVICGFGRTSEWFGSDFYGLRPDMMTIAKGLTSGYVPMGGLIVRDEIVAVLNEGGDFNHGFTYSGHPVAAAVALENIRILREEKIVERVRSETAPYLQKRLRELSDHPLVGEVRGVGLLGAIELVKDKTTRERYTDKGAGMICRTFCFDNGLIMRAVGDTMIIAPPLVISFAQIDELVEKARTCLDLTLAVLQG
modifications: N-terminal His tag
notes: Pseudomonas syringae ω-transaminase, N-terminal His-tagged
ω-transaminase activity: conversion of L-alanine to pyruvate with adipate semialdehyde as substrate, against the empty vector control [1]: accepted adipate semialdehyde as substrate

B5: SEQ ID NO 8: Pseudomonas aeruginosa ω-transaminase, N-terminal His-tagged (protein, listed as Pseudomonas aeruginosa)
chain: MNARLHATSPLGDADLVRADQAHYMHGYHVFDDHRVNGSLNIAAGDGAYIYDTAGNRYLDAVGGMWCTNIGLGREEMARTVAEQTRLLAYSNPFCDMANPRAIELCRKLAELAPGDLDHVFLTTGGSTAVDTAIRLMHYYQNCRGKRAKKHVITRINAYHGSTFLGMSLGGKSADRPAEFDFLDERIHHLACPYYYRAPEGLGEAEFLDGLVDEFERKILELGADRVGAFISEPVFGSGGVIVPPAGYHRRMWELCQRYDVLYISDEVVTSFGRLGHFFASQAVFGVQPDIILTAKGLTSGYQPLGACIFSRRIWEVIAEPDKGRCFSHGFTYSGHPVACAAALKNIEIIEREGLLAHADEVGRYFEERLQSLRDLPIVGDVRGMRFMACVEFVADKASKALFPESLNIGEWVHLRAQKRGLLVRPIVHLNVMSPPLILTREQVDTVVRVLRESIEETVEDLVRAGHR
modifications: N-terminal His tag
notes: Pseudomonas aeruginosa ω-transaminase, N-terminal His-tagged
ω-transaminase activity: conversion of L-alanine to pyruvate with adipate semialdehyde as substrate, against the empty vector control [1]: accepted adipate semialdehyde as substrate
